From US20240247080A1, “GLP1/GIP/NPY2 RECEPTOR TRIPLE AGONISTS” (Boehringer Ingelheim International GmbH, priority 2022, published 2024)
Changes are numbered by the printed parent chain. Blank lines part the entries; values can stand above or below the binder they belong to. Starred links: 1 amine or outer side, 2 acyl side, 3 side chain; linkers in the order of their positions; H or OH if unused. Non-standard residues stand in square brackets, D forms with d. Groups on a side chain read outwards from the residue. No end group written: not given here. *: point of attachment. C20 diacid = O=C(O)CCCCCCCCCCCCCCCCCCC(=O)*; C18 diacid = O=C(O)CCCCCCCCCCCCCCCCC(=O)*; γGlu = O=C(O)[C@H](CCC(=O)[*:2])N[*:1]; εLys = N[C@@H](CCCCN[*:1])C(=O)[*:2]; glu = not defined here; Aib = CC(C)(N)C(=O)O

Experiments:
Test in all cases: cell-based or functional assay
NPY2 receptor = target: T1, NPY2 receptor (human (printed as hNPY2R), UniProt P49146 1-381)
T1 sequence (looked up): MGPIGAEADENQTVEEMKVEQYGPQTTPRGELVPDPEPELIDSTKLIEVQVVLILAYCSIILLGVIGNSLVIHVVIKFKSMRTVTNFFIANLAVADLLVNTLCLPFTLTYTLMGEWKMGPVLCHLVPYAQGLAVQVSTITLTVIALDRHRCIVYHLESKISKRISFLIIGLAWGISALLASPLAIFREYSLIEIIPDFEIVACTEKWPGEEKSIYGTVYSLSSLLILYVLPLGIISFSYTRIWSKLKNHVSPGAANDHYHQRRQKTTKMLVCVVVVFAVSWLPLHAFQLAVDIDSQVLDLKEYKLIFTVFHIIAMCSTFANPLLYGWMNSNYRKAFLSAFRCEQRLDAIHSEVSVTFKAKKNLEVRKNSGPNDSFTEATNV

GLP-1 receptor = GLP-1 receptor (human (printed as hGLP1R), UniProt P43220 24-463)
GIP receptor = target: T2, GIP receptor (human (printed as hGIPR), UniProt P48546 22-466)
T2 sequence (looked up): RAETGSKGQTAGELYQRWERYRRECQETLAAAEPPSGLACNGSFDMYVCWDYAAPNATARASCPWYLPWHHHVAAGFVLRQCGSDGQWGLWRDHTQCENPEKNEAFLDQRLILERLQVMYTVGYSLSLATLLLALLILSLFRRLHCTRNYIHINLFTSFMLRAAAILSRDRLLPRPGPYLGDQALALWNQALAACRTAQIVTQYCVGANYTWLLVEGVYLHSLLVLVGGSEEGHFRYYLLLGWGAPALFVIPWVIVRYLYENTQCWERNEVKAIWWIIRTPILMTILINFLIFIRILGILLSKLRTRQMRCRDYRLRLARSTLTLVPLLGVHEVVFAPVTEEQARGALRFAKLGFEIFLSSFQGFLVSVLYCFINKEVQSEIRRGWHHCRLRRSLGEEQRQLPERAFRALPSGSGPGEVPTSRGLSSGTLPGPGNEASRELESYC

B1: Compound 190 (peptide)
peptide: YXEGTFTSDYSIXLEKQAQXAFVEWLIKGGPSSGASLRHYYNWRTRQRY
modifications: Aib at 2, 13, 20; D-Arg at 44; K28 side chain carries C20DA-gGlu-gGlu-gGlu-gGlu-Glu-gGlu-eLys (so in the source); C-terminal amide
EC50 hNPY2R 0.5% hP (CreLuc) (NPY2 receptor): > 100 nM | EC50 hNPY2R 100% hP (CreLuc) (NPY2 receptor): > 1000 nM | EC50 hGLP1R 0.5% hP (CreLuc) (GLP-1 receptor): 0.1 nM | EC50 hGLP1R 100% hP (CreLuc) (GLP-1 receptor): 1.09 nM | EC50 hGIPR 0.5% hP (CreLuc) (GIP receptor): 0.13 nM | EC50 hGIPR 100% hP (CreLuc) (GIP receptor): 1.18 nM

B3: Compound 191 (peptide)
peptide: B1 peptide with R44L, Y49X
modifications: Aib at 2, 13, 20; Tle at 49; K28 side chain carries C20DA-gGlu-gGlu-gGlu-gGlu-gGlu-gGlu-eLys; C-terminal amide
EC50 hNPY2R 0.5% hP (CreLuc) (NPY2 receptor): > 99.9 nM | EC50 hNPY2R 100% hP (CreLuc) (NPY2 receptor): > 999 nM | EC50 hGLP1R 0.5% hP (CreLuc) (GLP-1 receptor): 0.17 nM | EC50 hGLP1R 100% hP (CreLuc) (GLP-1 receptor): 2.92 nM | EC50 hGIPR 0.5% hP (CreLuc) (GIP receptor): 0.23 nM | EC50 hGIPR 100% hP (CreLuc) (GIP receptor): 2 nM

B4: Compound 182 (peptide)
peptide: B1 peptide with H39X, R44L
modifications: Aib at 2, 13, 20, 39; K28 side chain carries C20DA-gGlu-gGlu-gGlu-gGlu-gGlu-gGlu-eLys; C-terminal amide
EC50 hNPY2R 0.5% hP (CreLuc) (NPY2 receptor): 70.4 nM | EC50 hNPY2R 100% hP (CreLuc) (NPY2 receptor): 256 nM | EC50 hGLP1R 0.5% hP (CreLuc) (GLP-1 receptor): 0.13 nM | EC50 hGLP1R 100% hP (CreLuc) (GLP-1 receptor): 2.73 nM | EC50 hGIPR 0.5% hP (CreLuc) (GIP receptor): 0.21 nM | EC50 hGIPR 100% hP (CreLuc) (GIP receptor): 1.39 nM

B7: Compound 186 (peptide)
peptide: B1 peptide with E24Q, S33E, R44L, Q47X
modifications: Aib at 2, 13, 20; bHGln (beta-homo-L-glutamine) at 47; K28 side chain carries C20DA-gGlu-gGlu-gGlu-gGlu-gGlu-gGlu-eLys; C-terminal amide
EC50 hNPY2R 0.5% hP (CreLuc) (NPY2 receptor): > 99.9 nM | EC50 hNPY2R 100% hP (CreLuc) (NPY2 receptor): 904 nM | EC50 hGLP1R 0.5% hP (CreLuc) (GLP-1 receptor): 0.11 nM | EC50 hGLP1R 100% hP (CreLuc) (GLP-1 receptor): 1.25 nM | EC50 hGIPR 0.5% hP (CreLuc) (GIP receptor): 0.11 nM | EC50 hGIPR 100% hP (CreLuc) (GIP receptor): 0.77 nM

Binder: Y[Aib]EGTFTSDYSI[Aib]LEKQAQ[Aib]EFVQWLIK([Glu-Glu-Glu-Glu-Glu-Glu-C18 diacid])GGPSEGASLRHYYNWLTRQRY-NH2 (also: TFA salt) [Compound 179]
EC50 hNPY2R 0.5% hP (CreLuc) (NPY2 receptor): 18.5 nM | EC50 hNPY2R 100% hP (CreLuc) (NPY2 receptor): 111 nM | EC50 hGLP1R 0.5% hP (CreLuc) (GLP-1 receptor): 0.22 nM | EC50 hGLP1R 100% hP (CreLuc) (GLP-1 receptor): 10.5 nM | EC50 hGIPR 0.5% hP (CreLuc) (GIP receptor): 0.38 nM | EC50 hGIPR 100% hP (CreLuc) (GIP receptor): 3.34 nM

Binder: Y[Aib]EGTFTSDYSI[Aib]LEKQAQ[Aib]AFVQWLIK([εLys-γGlu-γGlu-γGlu-γGlu-γGlu-C20 diacid])GGPSEYASLRHYYNWLTRQRY-NH2 (also: TFA salt) [Compound 189]
EC50 hNPY2R 0.5% hP (CreLuc) (NPY2 receptor): 8.03 nM | EC50 hNPY2R 100% hP (CreLuc) (NPY2 receptor): 45.8 nM | EC50 hGLP1R 0.5% hP (CreLuc) (GLP-1 receptor): 0.21 nM | EC50 hGLP1R 100% hP (CreLuc) (GLP-1 receptor): 10.2 nM | EC50 hGIPR 0.5% hP (CreLuc) (GIP receptor): 0.31 nM | EC50 hGIPR 100% hP (CreLuc) (GIP receptor): 5.06 nM

Binder: Y[Aib]EGTFTSDYSI[Aib]LEK(Ac)QAQ[Aib]AFVEWLIK([εLys-glu-γGlu-γGlu-γGlu-γGlu-γGlu-C20 diacid])GGPSSGASLRHYYNWLTRQRY-NH2 (reading uncertain; also: TFA salt) [Compound 192]
EC50 hNPY2R 0.5% hP (CreLuc) (NPY2 receptor): 20.5 nM | EC50 hNPY2R 100% hP (CreLuc) (NPY2 receptor): 128 nM | EC50 hGLP1R 0.5% hP (CreLuc) (GLP-1 receptor): 0.13 nM | EC50 hGLP1R 100% hP (CreLuc) (GLP-1 receptor): 2.01 nM | EC50 hGIPR 0.5% hP (CreLuc) (GIP receptor): 0.28 nM | EC50 hGIPR 100% hP (CreLuc) (GIP receptor): 1.95 nM

Other lines, results leading:

EC50 hNPY2R 0.5% hP (CreLuc) (NPY2 receptor): 26.1 nM | EC50 hNPY2R 100% hP (CreLuc) (NPY2 receptor): 137 nM | EC50 hGLP1R 0.5% hP (CreLuc) (GLP-1 receptor): 0.13 nM | EC50 hGLP1R 100% hP (CreLuc) (GLP-1 receptor): 1.9 nM | EC50 hGIPR 0.5% hP (CreLuc) (GIP receptor): 0.25 nM | EC50 hGIPR 100% hP (CreLuc) (GIP receptor): 1.42 nM
B2: Compound 195 (peptide)
peptide: B1 peptide with W43L, R44L
modifications: Aib at 2, 13, 20; K28 side chain carries C20DA-gGlu-gGlu-gGlu-gGlu-gGlu-gGlu-eLys; C-terminal amide

EC50 hNPY2R 0.5% hP (CreLuc) (NPY2 receptor): 42.6 nM | EC50 hNPY2R 100% hP (CreLuc) (NPY2 receptor): 158 nM | EC50 hGLP1R 0.5% hP (CreLuc) (GLP-1 receptor): 0.31 nM | EC50 hGLP1R 100% hP (CreLuc) (GLP-1 receptor): 6.06 nM | EC50 hGIPR 0.5% hP (CreLuc) (GIP receptor): 0.43 nM | EC50 hGIPR 100% hP (CreLuc) (GIP receptor): 3.61 nM
B5: Compound 197 (peptide)
peptide: B1 peptide with S36L, R44L
modifications: Aib at 2, 13, 20; K28 side chain carries C20DA-gGlu-gGlu-gGlu-gGlu-gGlu-gGlu-eLys; C-terminal amide

EC50 hNPY2R 0.5% hP (CreLuc) (NPY2 receptor): 25.2 nM | EC50 hNPY2R 100% hP (CreLuc) (NPY2 receptor): 152 nM | EC50 hGLP1R 0.5% hP (CreLuc) (GLP-1 receptor): 0.2 nM | EC50 hGLP1R 100% hP (CreLuc) (GLP-1 receptor): 13.6 nM | EC50 hGIPR 0.5% hP (CreLuc) (GIP receptor): 0.25 nM | EC50 hGIPR 100% hP (CreLuc) (GIP receptor): 3.68 nM
B6: Compound 196 (peptide)
peptide: B1 peptide with E24Q, S32E, S33E, R44L
modifications: Aib at 2, 13, 20; K28 side chain carries C18DA-E-E-E-E-E-E-eLys (SEQ ID NO: 643); C-terminal amide
